The assay addresses phospholamban (PLN), mouse (mouse (endogenous in mouse heart)) (UniProt P61014). Kind of assay: co-IP.
Chain of UniProt P61014 (P61014 whole entry): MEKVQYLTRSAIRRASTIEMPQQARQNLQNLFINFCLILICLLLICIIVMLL

In turn, “protein phosphatase 1 catalytic subunit (PP1c), mouse (from UniProt P62137 1-330) (enzyme)” gave a reduction of PP1c bound to PLN in Ppp1r3a-KO against WT hearts of 58%.

These data come from article PMC6699925.
